Measurements reported in PMC10246534.

The substances below were run against casirivimab (human) (assay: SPR; Biacore T200; […]; HBS-EP, 25 °C; 1:1 binding model).
casirivimab (human), sequence (heavy, as listed by the source, chain 1 of 2): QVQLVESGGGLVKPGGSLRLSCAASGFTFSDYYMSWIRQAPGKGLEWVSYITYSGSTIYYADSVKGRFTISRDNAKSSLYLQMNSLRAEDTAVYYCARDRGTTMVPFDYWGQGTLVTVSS
casirivimab (human), sequence (light, as listed by the source, chain 2 of 2): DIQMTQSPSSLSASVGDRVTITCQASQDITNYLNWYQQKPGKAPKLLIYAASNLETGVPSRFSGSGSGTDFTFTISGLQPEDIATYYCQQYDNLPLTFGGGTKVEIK
For “Delta RBD + E406D (from UniProt P0DTC2) (domain or fragment)”, the Kd was 7.1 nM. “Delta RBD + G446S (from UniProt P0DTC2) (domain or fragment)” gave a Kd of 0.56 nM. With “Delta RBD + G446V (from UniProt P0DTC2) (domain or fragment)” the Kd was 0.64 nM. For “Delta RBD + G446V + L455F (from UniProt P0DTC2) (domain or fragment)”, the Kd was 69 nM. For “Delta RBD + Y453F (from UniProt P0DTC2) (domain or fragment)”, the Kd was 67 nM.

Each substance was assayed against imdevimab (human) in the same assay as above.
imdevimab (human), sequence (heavy, as listed by the source, chain 1 of 2): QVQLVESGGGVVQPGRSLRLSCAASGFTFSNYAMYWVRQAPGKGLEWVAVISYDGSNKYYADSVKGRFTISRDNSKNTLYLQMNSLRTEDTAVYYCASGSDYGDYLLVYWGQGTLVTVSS
imdevimab (human), sequence (light, as listed by the source, chain 2 of 2): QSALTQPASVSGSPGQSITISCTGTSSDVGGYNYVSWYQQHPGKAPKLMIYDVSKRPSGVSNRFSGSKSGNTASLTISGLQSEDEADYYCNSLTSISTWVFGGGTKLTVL
Work on “Delta RBD + E406Q (from UniProt P0DTC2) (domain or fragment)” yielded a Kd of 8.9 nM. “Delta RBD + G446S (from UniProt P0DTC2) (domain or fragment)” was tested, and the Kd was 734 nM. With “Delta RBD + L455S (from UniProt P0DTC2) (domain or fragment)” the Kd was 9.1 nM. With “Delta RBD + Y453F (from UniProt P0DTC2) (domain or fragment)” the Kd was 9.8 nM.

These substances were tested against sotrovimab in the same assay as above.
Substance “BA.1 RBD + E340A (from UniProt P0DTC2) (domain or fragment)” has a Kd of 3420 nM. With “BA.1 RBD + E340D (from UniProt P0DTC2) (domain or fragment)” the Kd was 764 nM. For “BA.1 RBD + E340K (from UniProt P0DTC2) (domain or fragment)”, the Kd was 3440 nM. “BA.1 RBD + E340V (from UniProt P0DTC2) (domain or fragment)” gave a Kd of 345 nM. “BA.1 RBD + P337R (from UniProt P0DTC2) (domain or fragment)” gave a Kd of 753 nM. In the case of “BA.1 RBD + P337S (from UniProt P0DTC2) (domain or fragment)”, the Kd is reported as 332 nM.
